Ends that are not written are not given here. * marks the point of attachment. Crotonyl(E) = C/C=C/C(=O)*

Assay [1] has as its target Histone H3K4cr peptide (Homo sapiens) (UniProt P68431). Nature of the assay: ITC. The conditions noted are these: cited from earlier work.
Assay [2] has as its target T1, AF9 YEATS domain (Homo sapiens, UniProt P42568).
T1 sequence (P42568 1-138): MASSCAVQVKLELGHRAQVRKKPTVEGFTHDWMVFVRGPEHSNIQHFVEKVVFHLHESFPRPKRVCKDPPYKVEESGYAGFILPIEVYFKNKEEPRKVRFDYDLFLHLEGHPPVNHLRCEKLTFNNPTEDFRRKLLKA
In words: 2D 1H-15N HSQC NMR binding to AF9 YEATS domain. As to conditions: 30°C, H3 peptide added to AF9 YEATS domain.

Assay [3] deals with Histone H4K5ac/K8ac peptide (Homo sapiens) (UniProt P62805). The conditions noted are these: cited from earlier work.
Assay [4] addresses Histone H4K5cr/K8cr peptide (Homo sapiens) (UniProt P62805). The conditions noted are these: cited from earlier work.
The target in assay [5] is T2, AF9 YEATS domain (residues 1–138) (human, UniProt P42568 1-138).
T2 sequence (looked up): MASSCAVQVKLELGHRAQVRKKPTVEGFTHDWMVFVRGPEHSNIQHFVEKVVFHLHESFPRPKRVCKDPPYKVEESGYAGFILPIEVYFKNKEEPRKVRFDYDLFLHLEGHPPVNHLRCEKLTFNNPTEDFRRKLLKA
In words: ITC.

By Kd is commonly meant a measure of binding affinity in units of concentration. On to Sirt3 (from UniProt Q9NTG7), for which the Kd in assay [1] was 25 µM.
For TKQTAR-K-SSGGKA [unmodified H3 peptide], the “changes of protein backbone amide resonances / binding” value in assay [2] is reported as “did not cause any protein resonance changes”.
Take TAF1 BD2 (from UniProt P21675): the Kd in assay [3] is 50 µM; in assay [4], 100 µM.

B1: histone H3K27ac peptide (residues 21–33) (peptide)
peptide: ATKAARK(Ac)SAPATG
As for B1, the binding result in assay [5] was “binds”.

B2: histone H3K27cr peptide (residues 21–33) (peptide)
peptide: ATKAARK(Crotonyl(E))SAPATG
Turning to B2, in assay [5], the binding result is “binds”.
